Results from the RNAGym collection of RNA variant scans (doi:10.1073/pnas.2313332121).
Fewer inactive variants are shown than the library holds.

B1: TPR 5TU (parent)
chain: GGAUCUUCUCGAUCUAACAAAAAAGACAAAUCUGCCACAAAGCUUGAGAGCAUCUUCGGAUGCAGAGGCGGCAGCCUUCGGUGGCGCGAUAGCGCCAACGUUCUCAACUAUGACACGCAAAACGCGUGCUCCGUUGAAUGGAGUUUAUCAUG

Variants of: B1
Experiment: polymerase ribozyme fitness, log enrichment relative to wild type (log ratio); higher = more active; in vitro selection for triplet polymerase activity
Method in brief: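 Mutant libraries of both subunits of a heterodimeric triplet polymerase ribozyme were PCR-built, transcribed, and selected once in triplicate, with frozen incubation at −7 °C and capture of gel-excised extended constructs on streptavidin beads before RT-PCR. Illumina sequencing of input and output libraries was filtered to genotypes with ≥10 input reads and ≥1 read per output. Fitness is the logarithm of genotype enrichment over wild-type enrichment, using inverse-variance-weighted replicate averages. The logarithm is base 2.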

Row | Variant | polymerase ribozyme fitness (log ratio)
1 | A16G A26U U31C U82A A106U C131A U139G G141C | ≤ -4.2
2 | A16G G46U | -1.19
3 | A16U C38A C75A C114U G143U | ≤ -4.2
4 | A16U A41G A47C C76G G88C G94C A110C U134A G140A G141C A147C | ≤ -4.2
5 | A16C U56A C103A G124U G143C | ≤ -4.2
6 | A16G C38U G50C U55A C57U C85G A120G A137U G143C | ≤ -4.2
7 | A16U C87A G100A | ≤ -4.2
8 | A16C A73G G92A | -3.3
9 | A17C A47U G58A G83U G94A G126U | ≤ -4.2
10 | A16U A22C C27A C125A A150G | ≤ -4.2
11 | A16C G59A C76A C85G U139A | ≤ -4.2
12 | A16U G92U | -2.29
13 | A16C G141A | -0.406
14 | A16U A60C U61A A66C | ≤ -4.2
15 | A16G A17G C18A G58C A60G C95A U144C A150C | ≤ -4.2
16 | A16C A110G | -3.67
17 | A17C A26G A41C C54A C72U C87A G100C G143U | ≤ -4.2
18 | A16G A20U U33G C85A G94A A150C | ≤ -4.2
19 | A16U A17C G50A U56A C87U G88A G117U | ≤ -4.2
20 | A16C A73U G88C C95G A98U | ≤ -4.2
21 | A16U A30C A47G G58A U111A | ≤ -4.2
22 | A16G G42A A52G C95U C96A C99G | ≤ -4.2
23 | A16U C43G G84C | ≤ -4.2
24 | A16U C27G A30U C35G G83A C103U | ≤ -4.2

Row | Variant | polymerase ribozyme fitness (log ratio)
25 | A16G A20C U78A C87U | ≤ -4.2
26 | A17C A24G A39U U56A C103G G136U | ≤ -4.2
27 | A16C U44G A47G C51A A60C U77A | ≤ -4.2
28 | A16U G81A | -1.95
29 | A16U C18A A40G G74A G80C G83U G86A A97U | ≤ -4.2
30 | A16G A41G U53G A73U G88A C125U G133U | ≤ -4.2
31 | A17C A40G C54A G83A G124A | ≤ -4.2
32 | A16C U55A | -1.28
33 | A16G C32G A41U G80C C99U A110U U127A G143A | ≤ -4.2
34 | A16G C43A U55A G80C G117U G133C | ≤ -4.2
35 | A16G C18U C27U A28U A40C G50C U56A G84C C125A G143A U146G | ≤ -4.2
36 | A16U A40G U44A G71C C85A G141A G143U | ≤ -4.2
37 | A16G A29U U45A C54G C87G C125G | ≤ -4.2
38 | A16U C54A G81A C85U C114U G136U G143U C149G | ≤ -4.2
39 | A16C U31C G50A G86A | -3.16
40 | A16G G48U G133U | -3.99
41 | A16U U33C C38U G140U | ≤ -4.2
42 | A16U A47C | -2.04
43 | A17C A26C C87U | -1.83
44 | A16G A41C U55G A142C | -3.52
45 | A16G C35U | -1.36
46 | A16C C32U A122G | -3.01
47 | A16G G42C C54G G70A C87A C99U A113C G141U U151C | ≤ -4.2
48 | A16G A20U C118U A137U | ≤ -4.2

Row | Variant | polymerase ribozyme fitness (log ratio)
49 | A16U G88C | ≤ -4.2
50 | A16U C18G A21G A22U C51U U53G G68A G81C | ≤ -4.2
51 | A16C C18G A47U G92A U101A | ≤ -4.2
52 | A16U G83A A106G A107C C118U C123G C129G A150G | ≤ -4.2
53 | A16G A20C A22C G25A A37U A40C C75U C96U U130G A138U U145G | ≤ -4.2
54 | A16U U53A C75A C93A C103G U130A | ≤ -4.2
55 | A17C A37C C93G | -2.89
56 | A16C C57U C129U G143A | -1.91
57 | A17C A21U G25U G84A | -2.95
58 | A16C G86U | -2.65
59 | A16U G58A C93A | -3.46
60 | A16U A22U G117A C132A U151G | ≤ -4.2
61 | A16U A29G A30U U53A U55A G62C U77G C116U | ≤ -4.2
62 | A16U A29U U45G U61G C93A | ≤ -4.2
63 | A16U A19U A40G | ≤ -4.2
64 | A16U A21G A30U G48C | ≤ -4.2
65 | A16U A19U A26C A37C G74C A89C G94A C108U A113G G136A | ≤ -4.2
66 | A16C C51A C54G C57A C96A G117U U135G | ≤ -4.2
67 | A16U G74A G84U U90C C118U A121U | ≤ -4.2
68 | A16C G92C | -1.11
69 | A16G G126A G143A | -3.34
70 | A16C G59A C85G G126U | -2.76
71 | A17C A110U | -4
72 | A16G A73U G94U | -2.22

Row | Variant | polymerase ribozyme fitness (log ratio)
73 | A16U A30C U44A G88A C105U U109A | ≤ -4.2
74 | A16C C18G A22G C27U A52G U61A A73G C85A U127C U139C | ≤ -4.2
75 | A16G A17C U31A U55G C57G A115C U135A | -3.86
76 | A16C G62C | -2.47
77 | A16C C76G C85U G133C C149A | ≤ -4.2
78 | A16G C27G U44A C79G | ≤ -4.2
79 | A16U G25C A52C C96U | -4.11
80 | A16U C129A | -3.81
81 | A16G A19C G80C C87A A150U | ≤ -4.2
82 | A16G A49U C131U | -1.5
83 | A16U U61A C95U | -3.06
84 | A16G G86A | -0.891
85 | A16G C27A C35G C43A U56G G58C C93U G117C A119C A121U G136A | ≤ -4.2
86 | A16G A37C G46A G50C C87A G92A A138C A147U | ≤ -4.2
87 | A16C C51U G84U U135A | -3.41
88 | A17C A91U | ≤ -4.2
89 | A16G C54U | -0.601
90 | A16C U61A G67A C87U A107U | ≤ -4.2
91 | A16U C116A | -0.257
92 | A16C U45G C114U | -3.74
93 | A16U A19U A39U U61A A113G G128A G141C | ≤ -4.2
94 | A16G A21C C27G G59A G67C U145G | ≤ -4.2
95 | A16G U53G G84U C96G | -3.88
96 | A16G U134A | -3.15

Row | Variant | polymerase ribozyme fitness (log ratio)
97 | A16G U134G | -3.44
98 | A17C A40G G50C C57U C108U G133C | ≤ -4.2
99 | A16G A40C | -0.456
100 | A16G A30U U90G G152U | ≤ -4.2
101 | A16G C32U C72A C76U C85G A107U | ≤ -4.2
102 | A17C A39U G58A C95A G141C | -2.82
103 | A17C A47C C95U C116U | -0.195
104 | A16G U82A U145G | -1.4
105 | A16U U55G C87U | -2.67
106 | A16U A19G C57A | -2.39
107 | A16G U55A G83A G117U | -1.7
108 | A16C U31C A37C A40C C95G G100A C114U | ≤ -4.2
109 | A16G C27U A28G C43U U53A C57A U82G C93U G143C | ≤ -4.2
110 | A16G G94A U104A | -0.709
111 | A17C A19U | 0.475
112 | A16C C57U A60G G86U C125U U134G | -4.12
113 | A16C C87U G128U | ≤ -4.2
114 | A16G C43G C57U G84A C85A A91C U127C | ≤ -4.2
115 | A16G G83U A107U A142C | ≤ -4.2
116 | A16C G58C A60G G83U C116U | -0.784
117 | A16C G42U U56C G81U C85G | ≤ -4.2
118 | A16G A24U A52C C85A C95U | ≤ -4.2
119 | A16U G124U | -2.37
120 | A17C A28U G46U A98U A107G A113G G133U | ≤ -4.2

Row | Variant | polymerase ribozyme fitness (log ratio)
121 | A16U C27G A28U U31C G74U U82A | ≤ -4.2
122 | A17C A21U A29U U53G A73G G94A | ≤ -4.2
123 | A16C C85U C95A C132U | -3.71
124 | A17C A23U G59U G84A U90C U151A | ≤ -4.2
125 | A16G C43A C57G G59U G70U G88U C99U A107G | ≤ -4.2
126 | A17C A41U U56A C99U A121G A147G | -3.04
127 | A17C A23U U104C | ≤ -4.2
128 | A16U U44A G71C C96G A106U U127C G133U G141C U148C | ≤ -4.2
129 | A16G C38A U56G C96U C103U C149G | ≤ -4.2
130 | A16U A37U C76G U82G A89G A91G G143U | ≤ -4.2
131 | A16G A20C C69G C149G | -4.02
132 | A16U A106G | -1.8
133 | A16G A39U C43G G50U G67C U109A U134A U139C | ≤ -4.2
134 | A17C A28U U44C A52U G94U A97G A142G | ≤ -4.2
135 | A16C G84U A120G | -2.78
136 | A16U A39U G84A G92U C103U C149G U151C | ≤ -4.2
137 | A16G C93G | -4.02
138 | A16U G143C | -3.63
139 | A16C U55A A106G | -1.85
140 | A16G A30U C38A C96G A97C C105G A107U A110U | ≤ -4.2
141 | A16G A23U C72A C87A C93U G126A | ≤ -4.2
142 | A17C A29C A66U G67A A91G C96U A115G C116A | ≤ -4.2
143 | A16U G50C U56A G84C A97U U101A A113C A119G G133U A137U | ≤ -4.2
144 | A16G A39C | -2.62

Row | Variant | polymerase ribozyme fitness (log ratio)
145 | A16G C18U A30U C35U U55A G71C C93U A97C C116A G141U | ≤ -4.2
146 | A16C U55A A142G A150G | -3.06
147 | A16U C125A | -2.06
148 | A17C A30G C79G C87G C96G C105A | ≤ -4.2
149 | A16C C85U A106U G126A | -3.28
150 | A16U A24U C27U A39U U55A C76A | ≤ -4.2
151 | A16G C87U | -1.85
152 | A16G A26U C85A C105G C114U G141C U151C | ≤ -4.2
153 | A16C A91C U101C | ≤ -4.2
154 | A16U C79G | ≤ -4.2
155 | A16U C63U | -1.7
156 | A16G C57A G86C G124U | -3.24
157 | A16C G94A C116G | -0.496
158 | A17C A40U U53A C76G C93U U146G | ≤ -4.2
159 | A17C A89U | 0.471
160 | A16U A29U U77G C85G C116U C125A U134C | ≤ -4.2
161 | A16C U45G A106G | -0.613
162 | A16C C51A A89U G94A A98U | -3.95
163 | A16U A21G C85G C93A C116A A150U | ≤ -4.2
164 | A16G U33G U90G C114U G117U A138C A150G | ≤ -4.2
165 | A16U C103G | -3.31
166 | A16U U139G G140U | ≤ -4.2
167 | A16U A98U A122G U146G | -3.26
